Experimental data: article PMC11371828 (Nature Communications, 2024)

What was measured:
Assay in all cases: pull-down
[1] = biological target: T1, 6xHis-IKKβ(1-669) EE K469E (human, UniProt O14920 1-669, S177E | S181E | K469E)
T1 sequence (looked up): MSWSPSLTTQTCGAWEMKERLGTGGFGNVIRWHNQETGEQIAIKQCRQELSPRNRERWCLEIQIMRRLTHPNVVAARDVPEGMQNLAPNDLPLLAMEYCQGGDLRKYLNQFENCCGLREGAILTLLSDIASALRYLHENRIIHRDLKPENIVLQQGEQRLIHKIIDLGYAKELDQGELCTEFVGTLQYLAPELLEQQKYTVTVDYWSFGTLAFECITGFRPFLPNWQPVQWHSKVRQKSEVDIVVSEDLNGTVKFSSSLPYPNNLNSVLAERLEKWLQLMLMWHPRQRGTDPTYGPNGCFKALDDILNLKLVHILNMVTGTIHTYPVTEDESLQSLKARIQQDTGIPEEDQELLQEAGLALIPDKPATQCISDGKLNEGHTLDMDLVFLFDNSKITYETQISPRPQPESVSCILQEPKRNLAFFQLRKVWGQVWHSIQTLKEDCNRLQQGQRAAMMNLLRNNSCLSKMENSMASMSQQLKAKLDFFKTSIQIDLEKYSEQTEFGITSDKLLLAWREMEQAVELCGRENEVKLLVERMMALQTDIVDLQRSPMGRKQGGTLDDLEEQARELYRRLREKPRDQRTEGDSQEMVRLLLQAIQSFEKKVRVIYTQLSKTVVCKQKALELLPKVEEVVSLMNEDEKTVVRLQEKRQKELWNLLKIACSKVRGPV

[2] = biological target: T2, 6xHis-IKKβ(1-669) EE M475A (human, UniProt O14920 1-669, S177E | S181E | M475A)
T2 sequence (looked up): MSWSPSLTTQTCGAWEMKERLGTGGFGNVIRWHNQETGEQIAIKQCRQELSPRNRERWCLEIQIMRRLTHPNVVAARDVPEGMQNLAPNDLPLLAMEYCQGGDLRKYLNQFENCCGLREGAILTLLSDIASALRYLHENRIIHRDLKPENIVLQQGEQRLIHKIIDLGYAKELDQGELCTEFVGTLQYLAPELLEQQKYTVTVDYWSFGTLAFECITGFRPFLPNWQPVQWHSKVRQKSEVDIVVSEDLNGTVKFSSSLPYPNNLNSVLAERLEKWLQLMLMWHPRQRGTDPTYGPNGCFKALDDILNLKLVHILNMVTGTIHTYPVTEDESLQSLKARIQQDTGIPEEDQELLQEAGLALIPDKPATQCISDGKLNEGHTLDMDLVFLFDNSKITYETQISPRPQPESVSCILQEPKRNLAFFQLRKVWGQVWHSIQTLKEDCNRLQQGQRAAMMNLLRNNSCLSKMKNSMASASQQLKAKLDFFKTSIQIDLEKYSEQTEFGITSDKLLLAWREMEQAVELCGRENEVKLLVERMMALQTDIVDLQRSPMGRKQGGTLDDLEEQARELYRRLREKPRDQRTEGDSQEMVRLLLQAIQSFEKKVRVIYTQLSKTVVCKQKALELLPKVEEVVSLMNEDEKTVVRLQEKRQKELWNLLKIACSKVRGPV

[3] = biological target: T3, 6xHis-IKKβ(1-669) EE R460E (human, UniProt O14920 1-669, S177E | S181E | R460E)
T3 sequence (looked up): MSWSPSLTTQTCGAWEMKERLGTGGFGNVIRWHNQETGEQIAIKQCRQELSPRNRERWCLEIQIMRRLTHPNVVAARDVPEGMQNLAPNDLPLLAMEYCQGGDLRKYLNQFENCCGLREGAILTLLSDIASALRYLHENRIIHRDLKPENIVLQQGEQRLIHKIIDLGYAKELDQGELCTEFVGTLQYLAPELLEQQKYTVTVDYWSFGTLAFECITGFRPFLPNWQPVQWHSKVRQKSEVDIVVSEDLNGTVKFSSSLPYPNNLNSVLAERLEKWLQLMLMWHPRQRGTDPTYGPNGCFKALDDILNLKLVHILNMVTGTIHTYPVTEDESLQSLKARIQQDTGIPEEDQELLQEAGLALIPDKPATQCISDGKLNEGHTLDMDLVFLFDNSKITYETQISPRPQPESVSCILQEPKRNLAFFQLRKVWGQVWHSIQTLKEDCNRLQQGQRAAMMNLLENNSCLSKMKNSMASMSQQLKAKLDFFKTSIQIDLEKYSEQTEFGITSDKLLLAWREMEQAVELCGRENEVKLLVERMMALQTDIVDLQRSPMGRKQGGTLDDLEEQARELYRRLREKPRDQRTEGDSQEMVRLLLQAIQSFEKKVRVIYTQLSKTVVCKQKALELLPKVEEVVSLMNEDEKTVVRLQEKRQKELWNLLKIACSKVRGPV

binding result [1]: binds | binding result [2]: binds | binding result [3]: binds
Binder: DELPYDDCVFGGQRLTL (peptide, UniProt P25963 301-317, looked up) [MBP-IκBα pep(s)]
